In patent US20220259317A1:

Target: FLT3 CAR (Short Form; NC7 based FLT3 CAR), SEQ ID NO: 1/29
Test: flow cytometry of FLT3 CAR transduced T cells stained with biotinylated protein L and streptavidin PE

Sequence of FLT3 CAR (Short Form; NC7 based FLT3 CAR), SEQ ID NO: 1/29 (chain, as listed by the source): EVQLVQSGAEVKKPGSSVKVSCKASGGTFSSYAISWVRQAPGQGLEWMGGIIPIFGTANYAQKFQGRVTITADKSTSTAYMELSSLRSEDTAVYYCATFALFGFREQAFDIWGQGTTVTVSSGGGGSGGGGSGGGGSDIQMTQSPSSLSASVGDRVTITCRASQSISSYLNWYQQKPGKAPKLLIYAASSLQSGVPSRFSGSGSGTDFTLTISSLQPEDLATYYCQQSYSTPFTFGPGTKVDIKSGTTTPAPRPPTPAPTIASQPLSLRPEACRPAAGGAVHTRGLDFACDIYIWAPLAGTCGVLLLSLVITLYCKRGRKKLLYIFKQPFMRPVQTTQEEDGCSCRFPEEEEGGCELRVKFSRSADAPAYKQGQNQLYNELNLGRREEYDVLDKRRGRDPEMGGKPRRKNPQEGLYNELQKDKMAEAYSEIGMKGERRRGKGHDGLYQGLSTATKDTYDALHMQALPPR

biotinylated protein L (Genscript)
% positive cells: 77.1%
